Measured values taken from US5972599, “High affinity nucleic acid ligands of cytokines” (NeXstar Pharmaceuticals, Inc.).

Tests used:
IL-4 = IL-4 (Homo sapiens, UniProt P05112 P05112:25-153); assay: filter; specificity control; conditions: tags: R&D Systems
IFN-gamma [1] = target: T1, IFN-gamma (Homo sapiens, UniProt P01579 P01579:24-161); assay: filter; specificity control; conditions: tags: Genzyme (Cambridge MA); Upstate Biotechnology for early SELEX rounds; chain copies: 2 inferred
IL-10 = IL-10 (Homo sapiens, UniProt P22301 P22301:19-178); assay: filter; TEM buffer, 37 C; conditions: tags: Bachem or R & D Systems; chain copies: 2 inferred
Method: Internally-labeled RNA transcripts were prepared by including [γ-^32P]ATP in T7 RNA polymerase transcription reactions. Full-length transcripts were purified on 8% denaturing polyacrylamide gels to ensure size homogeneity. Gel-purified RNA was diluted to a concentration of ~5 nM in TEM buffer, heated to 80° C. then chilled on ice to facilitate secondary structure formation. RNA concentrations were kept lower than 100 pM in binding reactions. Briefly, equal amounts of RNA were incubated with varying amounts of IL-10 in 50 µL of TEM buffer for 10 min at 37° C. RNA-protein mixtures were passed through pre-wet nitrocellulose filters (0.2µ) and the filters were immediately washed with 5 mL of binding buffer. Radioactivity retained on filters was determined by liquid scintillation counting. The quantities of RNA bound to filters in the absence of protein was determined and used for background correction. The percentage of input RNA retained on each filter was plotted against the corresponding log protein concentration. The nonlinear least square method to obtain the dissociation constant (K_d).

TNF-alpha [2] = target: T2, TNF-alpha (Homo sapiens, UniProt P01375 P01375:77-233); assay: competition; U937 cells; conditions: tags: Genzyme or R&D Systems; chain copies: 3 inferred
Method: (§1) A receptor binding competition assay was used to determine the bioactivity of the RNA ligands. ^125I labelled hTNFα at 0.1 nM was incubated in 50 µl of binding medium (PBS with 0.5 mM Mg^++, 0.2% BSA, 0.02% sodium azide, 1 U/µl RNasin) for 15 min at 4° C. with serially diluted competitors at 10^-4 to 10^-11 M, and 1×10^4/µl U937 cells. Duplicate aliquots were subsequently removed, centrifuged through 2:1 dibutyl-phthalate:dinonyl-phthalate mixture to separate free and bound ^125I labelled hTNFα, and the radioactivity in the pellet was measured on a gamma counter. Nonspecific binding was determined by inclusion of a 200-fold molar excess of unlabeled TNF.

TNF-alpha [3] = target: T2, TNF-alpha; assay: filter; orphan; conditions: tags: Genzyme or R&D Systems; chain copies: 3 inferred
IFN-gamma [4] = target: T1, IFN-gamma; assay: filter; biphasic 1.8/750 nM; conditions: tags: Genzyme (Cambridge MA); Upstate Biotechnology for early SELEX rounds; chain copies: 2 inferred
Method: (§2) The determination of equilibrium dissociation constants (Kds) for RNA pools was made subsequent to rounds 5, 8, 12, and 17 to monitor the progress of each SELEX. The Kds of RNA pools for mouse IFN-gamma (Genzyme Inc., Cambridge Mass.) were also determined after rounds 8 and 17. Kds were determined for individual ligands after cloning and sequencing of RNA pools and truncations (described below). Nitrocellulose filter binding was used to determine Kds as follows: filter discs were placed into a vacuum manifold and wetted with 5 ml of mPBS buffer. ^32P-labeled-RNA was incubated with serial dilutions of IFN-gamma in binding buffer for 5–10 min at 37° C. to allow binding to occur. […] The filter discs were dried and counted in a liquid scintillation counter (Beckmann Instruments, Palo Alto Calif.). Equilibrium dissociation constants were determined by least square fitting of the data points using the Kaleidagraph™ graphics program (Synergy Software, Reading Pa.). […] Biphasic binding constants were calculated according to standard procedures. Kds were determined by least square fitting of the data points using the Kaleidagraph™ graphics program.
(§3) The Kds of individual RNAs within each group were determined by nitrocellulose filter binding as described above. The Kds were determined using either a monophasic or biphasic least squares fit of the data.

TNF-alpha [5] = target: T2, TNF-alpha; assay: filter; class II; clone 28A printed with the same sequence but no Kd; conditions: tags: Genzyme or R&D Systems; chain copies: 3 inferred
IFN-gamma [6] = target: T1, IFN-gamma; assay: filter; biphasic 8.8/384 nM; conditions: tags: Genzyme (Cambridge MA); Upstate Biotechnology for early SELEX rounds; chain copies: 2 inferred
Method: as §2, §3

TNF-alpha [7] = target: T2, TNF-alpha; assay: filter; DPBS; class I; conditions: tags: Genzyme or R&D Systems; chain copies: 3 inferred
TNF-alpha [8] = target: T2, TNF-alpha; assay: competition; 125I-hTNFa binding to U937 cells, 4 C; conditions: tags: Genzyme or R&D Systems; chain copies: 3 inferred
Method: as §1

IFN-gamma [9] = target: T1, IFN-gamma; assay: filter; printed as '12 4 nM', decimal uncertain; conditions: tags: Genzyme (Cambridge MA); Upstate Biotechnology for early SELEX rounds; chain copies: 2 inferred
Method: The determination of equilibrium dissociation constants (Kds) for RNA pools was made subsequent to rounds 5, 8, 12, and 17 to monitor the progress of each SELEX. The Kds of RNA pools for mouse IFN-gamma (Genzyme Inc., Cambridge Mass.) were also determined after rounds 8 and 17. Kds were determined for individual ligands after cloning and sequencing of RNA pools and truncations (described below). Nitrocellulose filter binding was used to determine Kds as follows: filter discs were placed into a vacuum manifold and wetted with 5 ml of mPBS buffer. ^32P-labeled-RNA was incubated with serial dilutions of IFN-gamma in binding buffer for 5–10 min at 37° C. to allow binding to occur. Binding mixes were centrifuged as described above to remove aggregates, aspirated through the filter discs, and then immediately washed with 5 ml mPBS buffer. The filter discs were dried and counted in a liquid scintillation counter (Beckmann Instruments, Palo Alto Calif.). Equilibrium dissociation constants were determined by least square fitting of the data points using the Kaleidagraph™ graphics program (Synergy Software, Reading Pa.). […] Biphasic binding constants were calculated according to standard procedures. Kds were determined by least square fitting of the data points using the Kaleidagraph™ graphics program.

IFN-gamma [10] = target: T1, IFN-gamma; assay: competition; 30 pM 125I-IFN-gamma, A549 cells; conditions: tags: Genzyme (Cambridge MA); Upstate Biotechnology for early SELEX rounds; chain copies: 2 inferred
Method: The cells were washed 3 times with PBS. […] Incubations were carried out at 4° C. with shaking for 2 hrs. The cells were washed 2 times with cold PBS to remove free IFN and detached with 0.5% SDS.

IFN-gamma [11] = target: T1, IFN-gamma; assay: filter; biphasic 2.7/103 nM; conditions: tags: Genzyme (Cambridge MA); Upstate Biotechnology for early SELEX rounds; chain copies: 2 inferred
Method: as §2, §3

TNF-alpha [12] = target: T2, TNF-alpha; assay: FP; no value shown, Kd above 1 uM per footnote; filter binding, DPBS; conditions: tags: Genzyme or R&D Systems; chain copies: 3

T1 sequence (P01579 24-161, one chain of several): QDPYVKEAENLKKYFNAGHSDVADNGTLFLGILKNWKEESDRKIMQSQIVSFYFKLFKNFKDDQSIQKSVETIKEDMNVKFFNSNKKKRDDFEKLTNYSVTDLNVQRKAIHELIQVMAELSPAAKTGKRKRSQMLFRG
T2 sequence (P01375 77-233, one chain of several): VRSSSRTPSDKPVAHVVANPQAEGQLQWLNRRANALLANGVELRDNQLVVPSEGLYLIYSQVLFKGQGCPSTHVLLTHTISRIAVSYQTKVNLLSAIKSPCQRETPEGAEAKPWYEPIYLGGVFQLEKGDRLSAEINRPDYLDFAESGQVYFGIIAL
IL-10, sequence (P22301 19-178, one chain of several): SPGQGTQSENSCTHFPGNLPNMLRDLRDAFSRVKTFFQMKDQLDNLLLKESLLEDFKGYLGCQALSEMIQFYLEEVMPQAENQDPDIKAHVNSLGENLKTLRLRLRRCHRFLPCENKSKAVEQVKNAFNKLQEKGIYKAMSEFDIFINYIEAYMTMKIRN
IL-4, sequence (P05112 25-153, one chain of several): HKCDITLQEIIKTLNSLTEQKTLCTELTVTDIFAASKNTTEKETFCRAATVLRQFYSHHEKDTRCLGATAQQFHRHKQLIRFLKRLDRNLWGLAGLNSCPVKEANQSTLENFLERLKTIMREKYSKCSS

B1: IL-10 ligand 43 (ssRNA)
RNA: GGGAGACAAGAAUAAACGCUCAAACAUCGUAUAACUCUAAGGGCCUGGAUAUACGAUGAAUUCGACAGGAGGCUCACAACAGGC
modifications: 2'-F all C and U
In the case of B1, the binding result (IL-4) is reported as “no binding”, the binding result (IFN-gamma [1]) is reported as “no binding” and the Kd (IL-10) is reported as 0.213 µM.

B2: TNF 18C (ssRNA)
RNA: GGGAGCUCAGAAUAAACGCUCAAUGUCGAGUGCGAUGGAGGAGUAGGGAUGCAUUCGACAUGAGGCCCGGAUCCGGC
In the case of B2, the Ki (TNF-alpha [2]) is reported as 2.5 µM and the Kd (TNF-alpha [3]) is reported as 0.46 µM.

B3: IFN-gamma 2'NH2-17 (ssRNA)
RNA: GGGAGGACGAUGCGGUGGUAGCGCGAUAUAGCGCUGGUAGGGUUGCCGGUGAUCAGACGACUCGCCCGA
modifications: 2'-NH2 all C and U
B3 gave a Kd (IFN-gamma [4]) of 0.0018 µM.

B4: TNF 8C (ssRNA)
RNA: GGGAGCUCAGAAUAAACGCUCAAGUCCACACUUUGCCGAGCGUCCUAGUGUUCGACAUGAGGCCCGGAUCCGGC
In the case of B4, the Kd (TNF-alpha [5]) is reported as 0.43 µM.

B5: IFN-gamma 2'F-27 (ssRNA)
RNA: GGGAGGACGAUGCGGAACACCCCCGGUCUGACGCUUGUUCCGAAUUCCUCCACCGUCAGACGACUCGCCCGA
modifications: 2'-F all C and U
Binder B5 has a Kd (IFN-gamma [6]) of 0.0088 µM.

B6: TNF 25A (ssRNA)
RNA: GGGAGCUCAGAAUAAACGCUCAAGGCCGCAUGCCCCUCCUAACAGCAUGCAACUUCGACAUGAGGCCCGGAUCCGGC
In the case of B6, the Kd (TNF-alpha [7]) is reported as 0.04 µM and the Ki (TNF-alpha [8]) is reported as 0.021 µM.

B7: IFN-gamma 2'NH2-17 truncate (ssRNA)
RNA: GGGAGGACGAUGCGGUGGUAGCGCGAUAUAGCGCUGGUAGGGUUGCCGGUG
modifications: 2'-NH2 all C and U
B7 showed a Kd (IFN-gamma [9]) of 0.0124 µM.

B8: IFN-gamma 2'NH2-30 (ssRNA)
RNA: GGGAGGACGAUGCGGCAGGUAAUUACAUGAAGGUGGGUUAGGUACUUUCAGGGUCAGACGACUCGCCCGA
modifications: 2'-NH2 all C and U
Work on B8 yielded an IC50 (IFN-gamma [10]) of 0.01 µM and a Kd (IFN-gamma [11]) of 0.0027 µM.

B9: TNF 12A (ssRNA)
RNA: GGGAGCUCAGAAUAAACGCUCAACUUCUUGGCCCCGUCUCAAUGUCCGUACUUCUUCGACAUGAGGCCCGGAUCCGGC
B9 was tested, and the Kd (TNF-alpha [12]) was greater than 1 µM.
